Experiment [1] deals with yeast nucleosome (histone octamer on 147-bp Widom 601 DNA) (Saccharomyces cerevisiae) (UniProt P04911).
Experiment [2] addresses Tof1-Csm3 (full-length, CBP-tagged) (Saccharomyces cerevisiae) (UniProt P53840).
Experiment [3] concerns the target yeast nucleosome (histone octamer on 147-bp Widom 601 DNA) (Saccharomyces cerevisiae) (UniProt P04911). The source holds these as a separate data set.
The target is the same in experiment [4]. The source holds these as a separate data set.

yeast nucleosome (histone octamer on 147-bp Widom 601 DNA) (Saccharomyces cerevisiae), sequence (P04911 whole entry, chain 1 of 4, other chains not shown): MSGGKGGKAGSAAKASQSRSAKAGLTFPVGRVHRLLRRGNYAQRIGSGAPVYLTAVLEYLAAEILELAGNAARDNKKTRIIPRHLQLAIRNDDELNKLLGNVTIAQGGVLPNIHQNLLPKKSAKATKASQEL
yeast nucleosome (histone octamer on 147-bp Widom 601 DNA) (Saccharomyces cerevisiae), sequence (P02293 whole entry, chain 2 of 4, other chains not shown, further chain): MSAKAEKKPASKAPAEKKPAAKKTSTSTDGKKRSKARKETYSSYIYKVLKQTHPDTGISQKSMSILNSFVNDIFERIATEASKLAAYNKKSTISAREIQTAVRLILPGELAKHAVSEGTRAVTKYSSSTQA
Tof1-Csm3 (full-length, CBP-tagged) (Saccharomyces cerevisiae), sequence (P53840 whole entry, chain 1 of 2): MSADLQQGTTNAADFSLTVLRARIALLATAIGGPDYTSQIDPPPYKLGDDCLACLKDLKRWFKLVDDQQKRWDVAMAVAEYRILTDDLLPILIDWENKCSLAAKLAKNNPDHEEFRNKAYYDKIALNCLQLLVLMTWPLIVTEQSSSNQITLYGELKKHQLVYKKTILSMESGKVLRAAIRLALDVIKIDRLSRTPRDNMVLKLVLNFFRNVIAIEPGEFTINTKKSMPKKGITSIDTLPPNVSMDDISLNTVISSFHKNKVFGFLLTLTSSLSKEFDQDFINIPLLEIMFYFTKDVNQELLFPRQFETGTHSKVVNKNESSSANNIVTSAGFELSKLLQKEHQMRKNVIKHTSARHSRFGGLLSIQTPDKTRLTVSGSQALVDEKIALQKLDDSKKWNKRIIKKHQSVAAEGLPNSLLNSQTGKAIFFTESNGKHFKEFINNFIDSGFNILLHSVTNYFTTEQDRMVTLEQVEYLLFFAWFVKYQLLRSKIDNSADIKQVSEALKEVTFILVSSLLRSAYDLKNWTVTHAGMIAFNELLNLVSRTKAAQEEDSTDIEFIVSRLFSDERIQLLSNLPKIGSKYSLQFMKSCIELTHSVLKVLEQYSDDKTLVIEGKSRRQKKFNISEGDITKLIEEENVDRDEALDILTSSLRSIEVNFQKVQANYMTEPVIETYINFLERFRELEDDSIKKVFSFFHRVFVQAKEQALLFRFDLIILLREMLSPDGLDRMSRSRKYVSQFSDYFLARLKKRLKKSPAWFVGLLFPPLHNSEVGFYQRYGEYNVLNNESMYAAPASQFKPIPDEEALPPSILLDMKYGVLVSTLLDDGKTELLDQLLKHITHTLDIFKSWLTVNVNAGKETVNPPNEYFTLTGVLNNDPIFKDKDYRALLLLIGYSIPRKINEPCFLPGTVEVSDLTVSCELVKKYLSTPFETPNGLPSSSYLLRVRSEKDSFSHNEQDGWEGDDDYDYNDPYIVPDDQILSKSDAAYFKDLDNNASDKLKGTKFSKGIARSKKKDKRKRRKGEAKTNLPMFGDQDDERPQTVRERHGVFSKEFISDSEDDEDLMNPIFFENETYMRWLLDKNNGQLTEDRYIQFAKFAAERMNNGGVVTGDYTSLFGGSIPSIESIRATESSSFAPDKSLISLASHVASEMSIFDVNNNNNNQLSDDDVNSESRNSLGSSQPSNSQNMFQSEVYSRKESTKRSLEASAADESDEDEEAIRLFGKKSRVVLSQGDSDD
Tof1-Csm3 (full-length, CBP-tagged) (Saccharomyces cerevisiae), sequence (Q04659 whole entry, chain 2 of 2, further chain): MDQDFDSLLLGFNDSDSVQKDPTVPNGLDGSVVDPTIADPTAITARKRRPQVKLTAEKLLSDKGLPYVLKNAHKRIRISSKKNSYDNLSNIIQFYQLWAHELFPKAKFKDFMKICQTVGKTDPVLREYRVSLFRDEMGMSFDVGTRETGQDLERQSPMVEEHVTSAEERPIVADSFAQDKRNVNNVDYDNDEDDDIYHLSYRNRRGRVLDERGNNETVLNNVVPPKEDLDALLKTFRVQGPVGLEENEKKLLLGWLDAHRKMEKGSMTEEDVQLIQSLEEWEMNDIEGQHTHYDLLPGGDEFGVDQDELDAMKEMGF

Take “S-PΔC (FACT lacking the C-terminus of Pob3) (from UniProt P32558 1-1035; Q04636 1-552) (complex)”: the nucleosome reorganization, loss of FRET (%), with Nhp6 in experiment [1] is 63%. Substance “SΔC-P (FACT lacking the C-terminus of Spt16) (from UniProt P32558 1-1035; Q04636 1-552) (complex)” came in with a nucleosome reorganization, loss of FRET (%), with Nhp6 in experiment [1] of 46.8%.

In turn, “SΔN-P (FACT lacking the N-terminus of Spt16) (from UniProt P32558 1-1035; Q04636 1-552) (complex)” returned a decrease in in vitro chromatin replication (leading-strand length), 50 nM SΔN-P against 50 nM fl FACT, 20 nM fl Tof1-Csm3; restored by 4- and 8-fold excess of SΔN-P in experiment [2] of 58%. In addition, in experiment [1], the nucleosome reorganization, loss of FRET (%), with Nhp6 was 65%. As to “full-length (fl) FACT (Spt16-Pob3) (from UniProt P32558 1-1035; Q04636 1-552) (complex)”, in experiment [3], the nucleosome reorganization, loss of FRET (%) of Cy3/Cy5-labelled nucleosomal DNA, FACT together with Nhp6 (yFACT); nucleosome alone 9.23 was determined as 72.1% and the nucleosome reorganization, loss of FRET (%) of Cy3/Cy5-labelled nucleosomal DNA, FACT without Nhp6; nucleosome alone 9.23 amounted to 10.5%. Further, the reduction of the nucleosome reorganization activity of yFACT (single-molecule FRET) when Tof1-Csm3 is added in experiment [4] is 53%.
